# Assay results: US11078259B2, “Methods and compositions for promoting thermogenic potential” (Joslin Diabetes Center, Inc., priority 2015, dated 2021)
# “Also recorded” adds a separate entry of the source.
# B1: BMP7: Recombinant human BMP7, an inducer of brown adipogenesis (protein, UniProt P18075 293-431, looked up)
# Bone morphogenetic protein 7: STGSKQRSQNRSKTPKNQEALRMANVAENSSSDQRQACKKHELYVSFRDLGWQDWIIAPEGYAAYYCEGECAFPLNSYMNATNHAIVQTLVHFINPETVPKPCCAPTQLNAISVLYFDDSSNVILKKYRNMVVRACGCH
# Tested on: hBAT progenitors with hUCP1-promoter-Luc/GFP
# Test: Transplantation of UCP1 reporter progenitors into nude mice, in vivo bioluminescent imaging
# Set-up: species or system BALB/c athymic nude mice
# Details: mice implanted with hBAT progenitors; 3.3 nM BMP7 pretreatment of progenitors 6 days
# Excerpt: FIG. 7A depicts a transgenic UCP1 reporter system for measuring UCP1 gene expression. A bicistronic luciferase and green fluorescent protein (GFP) reporter was coupled to a 4.1 kb human UCP1 promoter fragment. FIG. 7B depicts the organization of plasmid pLV.ExBi.P/Puro-hUCP1promoter-Luc(firefly)-T2A-hrGFP, which contains the UCP1 reporter system described in FIG. 7A. FIG. 7C depicts time-lapse microscopy of differentiating hBAT-SVF cells containing the UCP1 reporter system. UCP1 expression was monitored by visualization of GFP. FIG. 7D depicts that in hBAT-SVF and hWAT-SVF cells stably expressing the reporter construct, luciferase activity (Right) was strongly correlated with endogenous UCP1 gene expression (Left) during the course of differentiation (see FIG. 2A and Methods). For determination of UCP1 mRNA levels, total RNAs were isolated on day 0, 2, 3, 5, 9, 12, 15 and 18; for luciferase activity assay, cell lysates were collected on day 0, 6, 9 and 18. Data are presented as fold changes compared to hWAT-SVF on day 0 (mean±s.e.m., n=3). […]
# Human immortalized white and brown fat progenitors with hUCP1-promoter-Luc/GFP were grown in the presence and absence of 3.3 nM BMP7 for 6 days to reach confluence. […] The luminescence intensity in regions of interest from each image was quantified to examine the viability of the implanted cells. […]
molecule,measurement,value
B1,luciferase activity (UCP1 reporter) in vivo,further induced; also recorded: increased further
